# T1: full-length Drosophila Hairless (Drosophila melanogaster, UniProt Q02308 1-1077)
# T1 construct: Hairless (H), Drosophila melanogaster, full length (pEG-HFL); also called pEG-HFL; source: yeast two-hybrid fusion (EGY48 yeast, pEG202 vector)
# T1 sequence (looked up): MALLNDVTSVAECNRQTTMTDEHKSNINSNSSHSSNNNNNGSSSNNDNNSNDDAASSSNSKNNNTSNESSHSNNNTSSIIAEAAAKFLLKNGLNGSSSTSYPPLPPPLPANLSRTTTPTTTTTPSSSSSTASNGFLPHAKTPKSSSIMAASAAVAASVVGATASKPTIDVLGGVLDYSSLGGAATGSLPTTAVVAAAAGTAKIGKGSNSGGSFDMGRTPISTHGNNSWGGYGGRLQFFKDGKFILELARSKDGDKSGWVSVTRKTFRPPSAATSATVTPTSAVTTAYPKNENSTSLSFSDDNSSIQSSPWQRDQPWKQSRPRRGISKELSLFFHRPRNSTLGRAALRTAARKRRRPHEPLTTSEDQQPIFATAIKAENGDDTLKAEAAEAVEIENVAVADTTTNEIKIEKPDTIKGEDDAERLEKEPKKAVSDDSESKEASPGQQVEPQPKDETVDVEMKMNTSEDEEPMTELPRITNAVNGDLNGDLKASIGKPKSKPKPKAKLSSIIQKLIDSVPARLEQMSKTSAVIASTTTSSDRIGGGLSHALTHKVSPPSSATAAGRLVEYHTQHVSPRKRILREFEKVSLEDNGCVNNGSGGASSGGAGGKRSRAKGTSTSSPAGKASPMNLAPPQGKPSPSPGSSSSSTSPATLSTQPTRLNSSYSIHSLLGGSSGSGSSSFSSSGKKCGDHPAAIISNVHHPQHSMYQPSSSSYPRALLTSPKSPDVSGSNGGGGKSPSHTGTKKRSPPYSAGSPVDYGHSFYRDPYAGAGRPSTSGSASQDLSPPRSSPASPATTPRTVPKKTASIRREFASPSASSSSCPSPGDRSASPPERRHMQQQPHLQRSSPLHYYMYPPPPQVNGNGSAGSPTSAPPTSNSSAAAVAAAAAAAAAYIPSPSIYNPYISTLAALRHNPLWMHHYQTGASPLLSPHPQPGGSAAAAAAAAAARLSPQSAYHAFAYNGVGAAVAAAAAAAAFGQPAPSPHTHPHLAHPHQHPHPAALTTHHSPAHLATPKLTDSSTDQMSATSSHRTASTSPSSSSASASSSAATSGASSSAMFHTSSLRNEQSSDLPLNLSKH
# B1: mouse RBPJ, wild type (natural protein)
# chain: not shown
# notes: RBPJ, Mus musculus, full-length protein in pJG vector; This is the yeast construct, not the Su(H) exon 1-RBPJ fusion of the flies; also called RBPJ^wt; murine RBPJ; source: yeast two-hybrid fusion (EGY48 yeast, pJG4-5 vector)
# Molecular target: T1, full-length Drosophila Hairless
# Assay: two-hybrid; Golemis-Brent system in EGY48 yeast; H fused to LexA DNA-binding domain in pEG202, CSL variants fused to B42-AD in pJG4-5; lacZ reporter pSH18-34; qualitative, and quantified in Miller Units (six clones from two experiments)
# Conditions: partners not purified
binder,measurement,value
B1,interaction strength relative to that between H and Su(H),~40%
